Test results reported in US20060193821, “Aptamers to the human IL-12 cytokine family and their use as autoimmune disease therapeutics” (published 2006).

Experiments:
[1] = target: T1, IL-23 (mouse, p19/p40 heterodimer) (Mus musculus, UniProt Q9EQ14;P43432 SEQ:22-196,SEQ:23-335); experiment: filter; 1X PBS, 0.1 mg/mL BSA, 30 min RT; inactive in TransAM cell assay; details: tags: isolated in-house; label: 32P
T1 sequence 1: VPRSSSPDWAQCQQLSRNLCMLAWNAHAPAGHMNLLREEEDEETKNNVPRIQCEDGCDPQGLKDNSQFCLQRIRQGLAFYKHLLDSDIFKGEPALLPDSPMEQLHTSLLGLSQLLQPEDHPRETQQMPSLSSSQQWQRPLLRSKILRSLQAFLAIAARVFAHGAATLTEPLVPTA
T1 sequence 2: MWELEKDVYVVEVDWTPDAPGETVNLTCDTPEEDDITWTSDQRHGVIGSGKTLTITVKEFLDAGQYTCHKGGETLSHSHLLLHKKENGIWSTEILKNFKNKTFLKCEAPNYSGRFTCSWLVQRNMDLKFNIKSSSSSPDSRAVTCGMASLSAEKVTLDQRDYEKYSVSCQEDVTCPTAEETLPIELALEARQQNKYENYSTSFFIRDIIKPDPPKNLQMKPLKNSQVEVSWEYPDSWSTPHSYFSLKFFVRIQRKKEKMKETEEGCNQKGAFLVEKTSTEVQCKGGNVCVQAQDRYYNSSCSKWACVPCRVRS
Description: Based on visual inspection of the parent clone sequences of the mouse IL-23 rRfY aptamers described in Example 1E, and predicted RNA structures using an RNA folding program (RNAstructure), minimized constructs were designed for each of the seven binding mIL-23 clones. PCR templates for the minimized construct oligos were ordered from Integrated DNA Technologies (Coraville, Iowa). Constructs were PCR amplified, transcribed, gel purified, and tested for binding to mIL-23 using the dot blot binding assay previously described. Trace ³²P-labeled RNA was combined with mIL-23 and incubated at room temperature for 30 min in 1×PBS plus 0.1 mg/mL BSA for a final volume of 30 μL. The reaction was added to a dot blot apparatus (Schleicher and Schuell Minifold-1 Dot Blot, Acrylic). Binding curves were generated as described in previous sections. Table 33 summarizes the protein binding characterization for each rRfY minimized construct that had significant binding to mIL-23.

[2] = target: T1, IL-23 (mouse, p19/p40 heterodimer); experiment: filter; 1X PBS, 0.1 mg/mL BSA, 30 min RT; details: tags: isolated in-house; label: 32P
Method: (§1) rRfY-mIL-23S/mIL-12 neg Protein Binding Analysis. The dot blot binding assays previously described were performed throughout the selection to monitor the protein binding affinity of the pool. Trace ³²P-labeled RNA was combined with mIL-23 or mIL-12 and incubated at room temperature for 30 min in 1×PBS plus 0.1 mg/mL BSA for a final volume of 30 μL. The reaction was added to a dot blot apparatus (Schleicher and Schuell Minifold-1 Dot Blot, Acrylic). Binding curves were generated as described in previous sections. When a significant level of binding of RNA in the presence of mIL-23 was observed, the pool was cloned using the TOPO TA cloning kit (Invitrogen, Carlsbad, Calif.) according to the manufacturer's instructions. The Round 9 pool template was cloned, and 10 individual clones from the selection were assayed in an 8-point dot blot titration against mIL-23. […] Four of the 10 total clones screened bound especially to mIL-23 and mIL-12 at varying affinities.

[3] = target: T2, IL-12 (mouse, p35/p40 heterodimer) (Mus musculus, UniProt P43431;P43432 SEQ:23-215,SEQ:23-335); experiment: filter; 1X PBS, 0.1 mg/mL BSA, 30 min RT; details: label: 32P
T2 sequence 1: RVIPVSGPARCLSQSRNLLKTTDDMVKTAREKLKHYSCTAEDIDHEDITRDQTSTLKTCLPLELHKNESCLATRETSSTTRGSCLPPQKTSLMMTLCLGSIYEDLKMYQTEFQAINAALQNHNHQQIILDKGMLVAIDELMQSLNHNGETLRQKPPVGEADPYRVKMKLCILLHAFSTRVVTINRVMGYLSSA
T2 sequence 2: T1 sequence 2
Method: as §1

[4] = target: T3, IL-23 (human, p19/p40 heterodimer) (Homo sapiens, UniProt Q9NPF7;P29460 SEQ:20-189,SEQ:23-328); experiment: SPR; Biacore, IL-23 immobilized on CM3; HBS-P, 25 C; details: tags: R&D Systems, carrier free
T3 sequence (Q9NPF7 20-189, chain 1 of 2): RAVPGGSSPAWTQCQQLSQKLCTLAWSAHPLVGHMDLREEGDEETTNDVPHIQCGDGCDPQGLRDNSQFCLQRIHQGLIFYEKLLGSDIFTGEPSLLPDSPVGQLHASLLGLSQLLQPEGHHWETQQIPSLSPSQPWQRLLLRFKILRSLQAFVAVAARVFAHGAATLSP
T3 sequence (P29460 23-328, chain 2 of 2): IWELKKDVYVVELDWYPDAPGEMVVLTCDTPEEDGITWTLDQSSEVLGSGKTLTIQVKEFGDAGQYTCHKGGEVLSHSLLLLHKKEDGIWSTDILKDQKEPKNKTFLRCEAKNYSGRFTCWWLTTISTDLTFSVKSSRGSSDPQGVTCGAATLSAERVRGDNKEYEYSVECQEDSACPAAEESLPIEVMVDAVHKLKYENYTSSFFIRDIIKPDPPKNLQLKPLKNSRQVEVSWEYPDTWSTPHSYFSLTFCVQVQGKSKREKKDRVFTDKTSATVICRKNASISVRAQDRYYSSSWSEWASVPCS
Method: All biosensor binding measurements were performed at 25° C. using a BIACORE 2000 equipped with a research-grade CM3 biosensor chip (BIACORE Inc. Piscataway, N.J.). Purified recombinant human IL-23 (R&D Systems, Minnapolis, Minn.) was immobilized to the biosensor surface using amino-coupling chemistry. To achieve this, the surfaces of two flow cells were first activated for 7 minutes with a 1:1 mixture of 0.1 M NHS (Nhydroxysuccinimide) and 0.4 M EDC (3-(N,Ndimethylamine) propyl-N-ethylcarbodiimide) at a flow rate of 5 μl/min. After surface activation, one flow cell was injected with 50 μg/ml of IL-23 at rate of 10 μl/minute for 15 minutes to allow for establishment of covalent bonds to the activated surface. Next, 1 M ethanolamine hydrochloride pH 8.5 was injected for 7 min at rate of 5 μl/min to inactivate residual esters. As a negative control, a blank flow cell was prepared by injecting 1 M ethanolamine hydrochloride pH 8.5 continuously for 7 minutes to inactivate residual esters, without protein injection.
For IL-23 binding, aptamers were serially diluted into HBS-P buffer (10 mM HEPES pH7.4, 150 mM NaCl, 0.005% Surfactant 20). […] Rate constant and dissociation constant were calculated using BIAevaluation software.

[5] = target: T3, IL-23 (human, p19/p40 heterodimer); experiment: filter; DPBS Ca Mg, 0.1 mg/mL BSA; details: tags: R&D Systems, carrier free
Method: The dot blot binding assay previously described was used to characterize the relative potency of the majority of the aptamers synthesized. For KD determination, chemically synthesized aptamers were purified using denaturing polyacrylamide gel electrophoresis, 5′end labeled with γ-³²P ATP and were tested for direct binding to full human IL-23. An 8 point protein titration was used in the dot blot binding assay (either {100 nM, 30 nM, 10 nM, 3 nM, 1 nM, 300 pM, 100 pM, 0 pM} or {10 nM, 3 nM, 1 nM, 300 pM, 100 pM, 30 pM, 10 pM, 0 pM}) in Dulbecco's PBS (with Mg⁺⁺ and Ca⁺⁺) with 0.1 mg/mL BSA. KD values were calculated by fitting the equation y=(max/(1+K/protein))+yint using KaleidaGraph (KaleidaGraph v. 3.51, Synergy Software). Sequences of the ARC979 derivatives synthesized, purified and assayed for binding to IL-23 as well as the results of the protein binding characterization are tabulated below in Tables 29 and 30.

[6] = target: T3, IL-23 (human, p19/p40 heterodimer); experiment: cell_activity; Pathscan, +/-1; TransAM 40 nM; details: tags: R&D Systems, carrier free; G4
Method: (§2) PHA Blasts were isolated and prepared as described above and treated with hIL-23 at a final constant concentration of 6 ng/mL (R&D Systems, Minneapolis, Minn.) to induce STAT3 activation, instead of using 3 ng/mL as previously described with the TransAM™ assay. Clones were screened by using a 6-point […] titration from 0 to 700 nM in 3 fold dilutions in combination with a constant IL-23 concentration of 6 ng/mL of IL-23 (R&D Systems, Minneapolis, Minn.) to induce STAT3 activation, instead of using 3 ng/mL as previously described with the TransAM™ assay. Lysates of treated cells were prepared using the buffers provided by the Pathscan kit, and the assay was run according to the manufacturer's instructions. IC₅₀s for the full length clones were calculated from the dose response curves.

[7] = target: T3, IL-23 (human, p19/p40 heterodimer); experiment: cell_activity; Pathscan pSTAT3, PHA blasts; details: tags: R&D Systems, carrier free
Method: as §2

[8] = target: IL-12 (human, p35/p40 heterodimer) (Homo sapiens, UniProt P29459;P29460 SEQ:57-253,SEQ:23-328); experiment: cell_activity; IL-12/IL-18 induced IFN-gamma, PHA blasts
Chain of IL-12 (human, p35/p40 heterodimer) (P29459 23-219, chain 1 of 2): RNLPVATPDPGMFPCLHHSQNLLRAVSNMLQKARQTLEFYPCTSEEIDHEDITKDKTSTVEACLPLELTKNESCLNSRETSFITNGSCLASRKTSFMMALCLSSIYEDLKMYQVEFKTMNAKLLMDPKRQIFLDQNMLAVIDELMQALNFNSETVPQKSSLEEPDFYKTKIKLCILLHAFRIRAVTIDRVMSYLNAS
Chain of IL-12 (human, p35/p40 heterodimer) (P29460 23-328, chain 2 of 2): as the sequence (P29460 23-328, chain 2 of 2) above
Method: (§3) PHA Blasts were isolated and prepared as described above. Once isolated, PHA Blasts were cultured for 4 days before use (with no re-feeding the night before use). After culturing for 4 days, an appropriate number of cells (enough for 0.5×10^6 cells per well) were collected, pelleted by centrifugation and washed with RPMI 1640 and 0.2% FBS (repeated twice). These cells were then serum starved by placement into 2, 150 mm sterile culture dishes with 25 mL of RPMI 1640-0.2% FBS each for 2-3 hours. Following serum starvation, cells were plated in a 96 well microtiter plate at a density of 0.5×10^6 cells per 200 μl of serum starved media.
(§4) IL-12/IL-18 or IL-23/IL-18 was used to induce IFN-γ production in PHA Blasts as follows. 10 μl of IL-23 (R&D Systems) at a concentration of 60 ng/mL (or 10 μl of IL-12 at a concentration of 20 ng/mL), and 10 μl of IL-18 (MBL) at a concentration of 200 ng/mL were added to the appropriate wells. […] Following incubation, 200 μl of supernatant was removed from each well and either flash frozen at −80° C., or quantified immediately for IFN-γ. An ELISA kit was used to quantify the IL-23/IL-18 and IL-12/IL-18 induced IFN-γ in PHA Blasts according to the manufacturer's recommended protocol (Recombinant human IFN-γ Quantikine Kit, R&D Systems, Minneapolis, Minn.). The colorimetric readout was quantified using a 96 well plate reader and absorbance values were graphed.

[9] = target: T3, IL-23 (human, p19/p40 heterodimer); experiment: cell_activity; IL-23/IL-18 induced IFN-gamma, PHA blasts; details: tags: R&D Systems, carrier free
Method: as §3, §4

[10] = target: T3, IL-23 (human, p19/p40 heterodimer); experiment: competition; direct +tRNA 117 nM; details: tags: R&D Systems, carrier free
Method: Several of the minimized constructs from the dRmY Selection 2 were also assayed in a competition format in which cold aptamer was titrated and competed away trace ³²P ATP labeled aptamer In the competition assay, the [IL-23] was held constant, the [trace labeled aptamer] was held constant, and the [unlabeled aptamer] was varied. The KD was calculated by fitting the following equation to the data: Fraction aptamer bound=amplitude*([aptamer]/(KD+[aptamer]))+background binding.
Table 25 below summarizes the minimized sequences and the parent clone from which they were derived, and Table 26 summarizes the binding characterization from direct binding assays (+/−tRNA) and competition binding assays for the minimized constructs tested.

[11] = target: T3, IL-23 (human, p19/p40 heterodimer); experiment: filter; non functional, lacks G doubles; details: tags: R&D Systems, carrier free

GGAGCGCACUCAGCCACCGGCUUAAUAUCCAAUAGGAACGUUCGCUCU (ssRNA, 2'-F all C and U (rRfY)) [ARC1918 (ARC1632 minimer)]
Kd [1]: 1 nM

B1: AMX369.H1 (ARC1914) (ssRNA)
RNA: GGAGCGCACUCAGCCACCUGGGAAAAUCUGGGUCCCUGAGUUCUAACAGCAGAGAUUUUUCGACCUCUCUGCUAGC
modifications: 2'-F all C and U (rRfY)
Kd [2]: 23 nM | Kd [3]: 194 nM

ACAGGCAAGUAAUUGGGGAGUGCGGGCGGGGUGU (mixed, ARC1623 with 5'-amine-linked 40 kDa PEG; 2'-deoxy, 2'-OMe, PS, 3'-idT)
Kd [4]: ~2 nM

B2: ARC1620 (mixed)
RNA: ACAGGCAAGUAAUUGGGGAGUGCGGGCGGGGUGU
modifications: 2'-OMe C,U and G16,G17,G24,G25,G30,G31; other A,G deoxy; PS 2-3; 3'-idT [PS 2-3; 2'-OMe at 2,6,10,13,14,16,17,21,23,24,25,27,30,31,32,34; other A,G deoxy; 3'-inverted dT at 35]
Kd [5]: 0.4 nM

ACAGGCAAGUAAUUGGGGAGUGCGGGCGGGGUGU (mixed, deoxy A,G; 2'-OMe C,U) [ARC979]
IC50 [6]: 6 nM

B3: ARC1624 (mixed)
RNA: B2 RNA
modifications: 2'-OMe C,U and G16,G17,G24,G25,G30,G31; other A,G deoxy; PS 25-26,27-28,28-29; 3'-idT [2'-OMe C2,C6,U10,U13,U14,G16,G17,U21,C23,G24,G25,C27,G30,G31,U32,U34; other A,G deoxy; PS 25-26,27-28,28-29 (N = PS linkage, left out); 3'-inverted dT 35]
IC50 [7]: 2 nM

ACAGGCAAGUAAUUGGGGAGUGCGGGCGGGGUGU (mixed, ARC1623 with 5' 40 kDa PEG; 3'-idT)
IC50 [8]: ~122 nM | IC50 [9]: ~4 nM

GGCAAGUAAUUGGGGAGUGCGGGCGGGG (mixed, deoxy A,G; 2'-OMe C,U) [ARC792]
Kd [10]: 11 nM

CUACAAGGCGGUACGGGGAGUGUGG (mixed, deoxy A,G; 2'-OMe C,U) [ARC793]
binding result [11]: no binding
